Results reported in the supplement of paper PMC9112550, “Optimization of the antimicrobial peptide Bac7 by deep mutational scanning” (BMC Biology, 2022).

System: Escherichia coli TOP10
Test: shrunken log2 fold change of peptide-encoding DNA abundance (4.5 h post-induction vs induction); higher = less antimicrobial activity (less host growth inhibition)
Settings: time post-induction: 4.5 h; library: site-saturation at positions 5, 18, 19, 20
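Further: peptides expressed intracellularly from a pBAD plasmid library in pooled LB shake-flask culture, induced with 0.3% L-arabinose, DNA abundance read by NGS, three biological replicates, DESeq2 with apeglm shrinkage.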

Row | Sequence | shrunken log2 fold change
1 | RRIRCRPPRLPRPRPRPWPLPRP | 0.222
2 | RRIRVRPPRLPRPRPRPSDCPRP | 0.234
3 | RRIRVRPPRLPRPRPRPSKCPRP | -0.0461
4 | RRIRWRPPRLPRPRPRPIMCPRP | -0.0807
5 | RRIRTRPPRLPRPRPRPREMPRP | 0.101
6 | RRIRWRPPRLPRPRPRPLIKPRP | 0.114
7 | RRIRGRPPRLPRPRPRPEDSPRP | 1.39
8 | RRIRKRPPRLPRPRPRPYYRPRP | -0.827
9 | RRIRWRPPRLPRPRPRPDVQPRP | 0.0431
10 | RRIRDRPPRLPRPRPRPMIEPRP | 0.0558
11 | RRIRVRPPRLPRPRPRPCGRPRP | 0.168
12 | RRIRWRPPRLPRPRPRPTCWPRP | 0.183
13 | RRIRGRPPRLPRPRPRPDLPPRP | 0.921
14 | RRIRSRPPRLPRPRPRPPTQPRP | 0.356
15 | RRIRERPPRLPRPRPRPNCKPRP | -0.832
16 | RRIRQRPPRLPRPRPRPVYPPRP | -0.0407
17 | RRIRNRPPRLPRPRPRPRNMPRP | -0.171
18 | RRIRPRPPRLPRPRPRPCIHPRP | -0.252
19 | RRIRKRPPRLPRPRPRPEIIPRP | -0.0419
20 | RRIRPRPPRLPRPRPRPKWIPRP | -0.465
21 | RRIRVRPPRLPRPRPRPECPPRP | 0.0319
22 | RRIRHRPPRLPRPRPRPPFIPRP | -0.483
23 | RRIRHRPPRLPRPRPRPSVNPRP | -0.0443
24 | RRIRMRPPRLPRPRPRPHMKPRP | -0.158
25 | RRIRIRPPRLPRPRPRPKKGPRP | -0.252

Row | Sequence | shrunken log2 fold change
26 | RRIRYRPPRLPRPRPRPLTGPRP | -0.023
27 | RRIRVRPPRLPRPRPRPWNCPRP | 0.0131
28 | RRIRHRPPRLPRPRPRPCSFPRP | -0.309
29 | RRIRLRPPRLPRPRPRPTFWPRP | 0.303
30 | RRIRIRPPRLPRPRPRPSQTPRP | -0.0359
31 | RRIRVRPPRLPRPRPRPWAIPRP | -0.0122
32 | RRIRRRPPRLPRPRPRPQHPPRP | 0.526
33 | RRIRDRPPRLPRPRPRPHLLPRP | 0.0253
34 | RRIRFRPPRLPRPRPRPPYHPRP | -0.454
35 | RRIRPRPPRLPRPRPRPKRDPRP | 0.0476
36 | RRIRSRPPRLPRPRPRPAIDPRP | -0.0382
37 | RRIRQRPPRLPRPRPRPYDCPRP | -0.195
38 | RRIRVRPPRLPRPRPRPLPGPRP | 0.547
39 | RRIRWRPPRLPRPRPRPMYIPRP | -0.144
40 | RRIRDRPPRLPRPRPRPAVAPRP | 0.309
41 | RRIRYRPPRLPRPRPRPRNEPRP | -0.0133
42 | RRIRMRPPRLPRPRPRPVSSPRP | -0.0703
43 | RRIRIRPPRLPRPRPRPRWAPRP | 0.0908
44 | RRIRTRPPRLPRPRPRPYGFPRP | -0.315
45 | RRIRKRPPRLPRPRPRPAHGPRP | 0.502
46 | RRIRNRPPRLPRPRPRPRMSPRP | -0.238
47 | RRIRNRPPRLPRPRPRPDRVPRP | -0.275
48 | RRIRFRPPRLPRPRPRPARYPRP | 0.153
49 | RRIRPRPPRLPRPRPRPLWVPRP | 0.165
50 | RRIRARPPRLPRPRPRPQAMPRP | 0.132

Row | Sequence | shrunken log2 fold change
51 | RRIRSRPPRLPRPRPRPRASPRP | 0.346
52 | RRIRDRPPRLPRPRPRPICDPRP | 0.137
53 | RRIRKRPPRLPRPRPRPCFHPRP | -0.125
54 | RRIRQRPPRLPRPRPRPDRNPRP | -0.176
55 | RRIRQRPPRLPRPRPRPTHQPRP | 0.403
56 | RRIRMRPPRLPRPRPRPYCEPRP | -0.34
57 | RRIRPRPPRLPRPRPRPNIWPRP | -0.0307
58 | RRIRARPPRLPRPRPRPAAPPRP | 0.99
59 | RRIRHRPPRLPRPRPRPKMTPRP | -0.519
60 | RRIRLRPPRLPRPRPRPVQVPRP | -0.113
61 | RRIRTRPPRLPRPRPRPTYYPRP | -0.359
62 | RRIRWRPPRLPRPRPRPIKNPRP | 0.136
63 | RRIRTRPPRLPRPRPRPQILPRP | -0.105
64 | RRIRTRPPRLPRPRPRPRNIPRP | -0.623
65 | RRIRSRPPRLPRPRPRPRWKPRP | 0.206
66 | RRIRARPPRLPRPRPRPQREPRP | 0.869
67 | RRIRKRPPRLPRPRPRPHKMPRP | 0.105
68 | RRIRTRPPRLPRPRPRPENHPRP | -0.119
69 | RRIRSRPPRLPRPRPRPTSCPRP | -0.0946
70 | RRIRKRPPRLPRPRPRPFDKPRP | 0.132
71 | RRIRTRPPRLPRPRPRPEVSPRP | -0.28
72 | RRIRRRPPRLPRPRPRPTFFPRP | 0.722
73 | RRIRDRPPRLPRPRPRPLGNPRP | -0.0332
74 | RRIRLRPPRLPRPRPRPHKCPRP | -0.0456
75 | RRIRNRPPRLPRPRPRPPDPPRP | 0.497

Row | Sequence | shrunken log2 fold change
76 | RRIRSRPPRLPRPRPRPWVMPRP | -0.0894
77 | RRIRVRPPRLPRPRPRPAYEPRP | 0.0112
78 | RRIRFRPPRLPRPRPRPACSPRP | 0.0139
79 | RRIRIRPPRLPRPRPRPCGRPRP | 0.0552
80 | RRIRMRPPRLPRPRPRPAHLPRP | 0.0862
81 | RRIRCRPPRLPRPRPRPNKVPRP | -0.142
82 | RRIRARPPRLPRPRPRPLMLPRP | 0.32
83 | RRIRQRPPRLPRPRPRPNCCPRP | 0.0381
84 | RRIRDRPPRLPRPRPRPDHFPRP | -0.0133
85 | RRIRQRPPRLPRPRPRPTRIPRP | 0.0389
86 | RRIRARPPRLPRPRPRPTYVPRP | 0.504
87 | RRIRNRPPRLPRPRPRPHIFPRP | -0.0701
88 | RRIRWRPPRLPRPRPRPKLNPRP | 0.318
89 | RRIRFRPPRLPRPRPRPEDCPRP | 0.121
90 | RRIRWRPPRLPRPRPRPEVLPRP | 0.167
91 | RRIRARPPRLPRPRPRPASDPRP | 0.661
92 | RRIRKRPPRLPRPRPRPEPNPRP | 0.737
93 | RRIRARPPRLPRPRPRPAYNPRP | 0.0748
94 | RRIRSRPPRLPRPRPRPIMDPRP | -0.0619
95 | RRIRCRPPRLPRPRPRPTFIPRP | -0.307
96 | RRIRARPPRLPRPRPRPGESPRP | 0.014
97 | RRIRDRPPRLPRPRPRPESKPRP | 0.0201
98 | RRIRDRPPRLPRPRPRPIQPPRP | 0.00911
99 | RRIRCRPPRLPRPRPRPDAGPRP | 0.122
100 | RRIRYRPPRLPRPRPRPHEVPRP | -0.0317

Row | Sequence | shrunken log2 fold change
101 | RRIRMRPPRLPRPRPRPMGAPRP | 1.18
102 | RRIRLRPPRLPRPRPRPICCPRP | -0.205
103 | RRIRHRPPRLPRPRPRPQDTPRP | -0.374
104 | RRIRMRPPRLPRPRPRPLRYPRP | 0.856
105 | RRIRPRPPRLPRPRPRPRASPRP | 0.548
106 | RRIRSRPPRLPRPRPRPCRKPRP | -0.012
107 | RRIRPRPPRLPRPRPRPACQPRP | 0.22
108 | RRIRNRPPRLPRPRPRPCSSPRP | -0.0135
109 | RRIRSRPPRLPRPRPRPGEIPRP | 0.223
110 | RRIRIRPPRLPRPRPRPWDMPRP | -0.00715
111 | RRIRFRPPRLPRPRPRPWPHPRP | -0.132
112 | RRIRARPPRLPRPRPRPSGFPRP | 0.0172
113 | RRIRRRPPRLPRPRPRPNQVPRP | 0.12
114 | RRIRGRPPRLPRPRPRPASIPRP | 0.371
115 | RRIRSRPPRLPRPRPRPVFFPRP | 0.142
116 | RRIRIRPPRLPRPRPRPKRVPRP | 0.0424
117 | RRIRCRPPRLPRPRPRPFMYPRP | -0.592
118 | RRIRNRPPRLPRPRPRPTSTPRP | -0.7
119 | RRIRCRPPRLPRPRPRPVIYPRP | -0.493
120 | RRIRSRPPRLPRPRPRPRWIPRP | 0.00261
121 | RRIRLRPPRLPRPRPRPPLHPRP | 0.456
122 | RRIRPRPPRLPRPRPRPYSEPRP | 0.0371
123 | RRIRCRPPRLPRPRPRPDLCPRP | -0.047
124 | RRIRTRPPRLPRPRPRPTMCPRP | -0.416
125 | RRIRMRPPRLPRPRPRPVCGPRP | 0.898
